The nature of the data set: soluble fraction after stress (log2 fold change); higher = more stays soluble; pooled small domains, quantitative proteomics. Conditions: stress: 50 degC. The method in brief:
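After stress at 50°C, the amount of each protein still soluble was measured. This was done on pooled custom libraries of small protein domains, using high-throughput quantitative proteomics. The figure given is a base-two log fold change and stands for aggregation propensity, with higher values meaning more protein stays in solution.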
Consider “HMIQSEQIPFSKFLKEVDSGRVVQVEIQGNNINGVLSDGSKFKTYSPNYPELVGKLSDKGVSIVASPV”, for which the “soluble fraction (log2)” value is 0.106.

Consider “HMNGQITPSRAKEIALGHAGVSEGSANFKKIKLDNKNGRPAYEIEFIANNSRYEFEINASNGSIIKFNK”, for which the “soluble fraction (log2)” value came to 0.345.

As for “HMNKFADLAGNIIYNENGVEVFNFGKYKGQPVAEVFKKDIGYYGWIQNADFPRYTKKVFTAIQLKSK”, the “soluble fraction (log2)” value is -1.22.

“HMSWRWVPVSGAYTTSALEAAGLTRAFDDQAAAEEWLGLFFDDLLREGVGEVSLYEEDRLVYGPMSL”: the “soluble fraction (log2)” value is -3.1.

For the sequence “HMSILSIGLERGMKKGVAWGIAKSILDILEETGPVSEKTREMIVTETDAERLSAWVKKAARSNSEEDFLSK”, the “soluble fraction (log2)” value is -0.631.

For the sequence “HMPAKDAEFTAFVRSATPTLTRTAYLLTGDRETASDLVQEAFVRTYLAWRRVRPEEATAYTRRVLVN”, the “soluble fraction (log2)” value worked out at 0.0368.

Regarding “HMAPEEIPLDRVVRLVEQGRVESIVVTGERLEVTLQNGTVYGSTKENGVGFMETLDRYQVPLEQRDFSYEV”, the “soluble fraction (log2)” value was -0.0708.

Consider “HMQSLSDQVFFYLKERIINNEMVPGSIISIEKLTSEFGISNTPVREAIVRLAGLDLVTIHRNKNITVS”, for which the “soluble fraction (log2)” value was -2.39.

“HMAPNDELTRQVISVLSGTPQQAFNYKQISKKLNINDSSERRMVSNILRELAGKGEIVEVYQGKYRSKAPA”: the “soluble fraction (log2)” value is 0.0588.

“HMKSLLTHAEEFVRNNNGRWMLAETSSKESYSSKQNFYLRNNYSIISEIRDFYSVGDNLLVFGKFFT”: the “soluble fraction (log2)” value is 0.0992.

Turning to “HMNEDYFTIAGYASLRGVNIDTSKANMLGRKATKLSREYGYDIGKVTDTRFGKVNSYHLDILKSIFEF”, the “soluble fraction (log2)” value was -0.477.

Regarding “HMIAANMTISQRIAAALAEYGVMSVKDIAQEVLGATDKKDTEKIRVTLTRDHGKRFRTYSDGTWSLKDWRP”, the “soluble fraction (log2)” value is -1.12.

As for “HMRPTVNETQIREVFRSILGREVDPEGLRHYLGQAAKGWSIDQIRADVNNSQEAHQRRAELARQAEELK”, the “soluble fraction (log2)” value amounted to 0.181.

For “HMPLKLIDVYLGRHGKKRYDVFKETGLSQQTLASANGKPAAALTGRILQAIGRTVGETPGRVLDEMLMIEQ”, the “soluble fraction (log2)” value is -0.691.

Consider “HMLAKYEIIKQDIIQMIEEKKFKPGDKIYSEGELKKIYNVSSTTVVRALQDLVLSGYLIRKQGEGTYVRK”, for which the “soluble fraction (log2)” value is -1.23.

Take “HMGNWENVEKETTEAIMAVKNGEAVWVDLAPANRMIRQMQHELVEQYGLLSQSYGKEPKRRIRIFQNP”: the “soluble fraction (log2)” value was -0.337.

Regarding “HMTNLTPKQQQIYQFIRASTQANGYPPTLREIGQQVGVRSPSTVKYHLDNLRTLGLLHWDGGKTRSITLP”, the “soluble fraction (log2)” value is -0.372.

“HMGTQKVQVVNGPINVRSGPGPTFEKIGMVEDQAVYQVVSKKDDWFQISLPGNKTAWVAGWLVKEIK”: the “soluble fraction (log2)” value came to 0.0417.

For “HMGNLIIFYDEGIGSGPLMKAVNDSGVSLVYEYKNLHGIAIRPSAKTNIQDAIAYFQKVNGVLSVEQ”, the “soluble fraction (log2)” value is -2.52.

Take “HMTLHEAMEKLFRQVGRPMTTKEIAEKLNENKWYQKADGSPLTPYQIYGRAKNYPALFHREGSIIYLKGS”: the “soluble fraction (log2)” value was -0.41.

In the case of “HMRMLLEERLDEIVKIVNERGSISNQELVKMFGASESTIRRDITTLANDNRVIRVHGGAMSVVS”, the “soluble fraction (log2)” value is -0.0564.

As for “HMDSDRAARLSSLTPQQFRVLRMVSEGQLNKQIAYQLNISEATVKSHVSAILQKLGVNSRTQAVILATRLD”, the “soluble fraction (log2)” value was -2.01.

Turning to “HMETTMVEIKAEFTIRNRLDIPAMMEKAGYKDRGEFLSVLEKITGNYNWDRDVKKGDTFMVPSKLA”, the “soluble fraction (log2)” value is -0.777.

Turning to “HMGDPMAIMQLSSNTTPEYWEAYQKYHIQEYEQSNFIRYVNGISVLDDDFVDKVLITIDQHGRIFSELKS”, the “soluble fraction (log2)” value was -2.41.

With “HMEDVSTLAVKQRIDDLVKQENPAKPLSDSDIVARLKTDGIYIARRTVAKYRMELNIPSSSARKRAQQFS”, the “soluble fraction (log2)” value is -0.833.

In the case of “HMADNKDMQAAFMEALNGLKEYAKVNGNIVTKEDVNSYFKDMHLDDNKYSMITGYLMANGITIKG”, the “soluble fraction (log2)” value worked out at 0.23.

Consider “HMRDSWNEATKEKRYTEAYDALNSALKKTPATPHALSDALWIARELGRTNEEVQRLEWRLYALLTWIS”, for which the “soluble fraction (log2)” value worked out at 0.0708.

As for “HMLQMSDSSALEAILDEVLGSEMGQKALSDIEAGNMKAMGFIIGQSMKLSKGQANPQIINKLLQQRLK”, the “soluble fraction (log2)” value is -0.000287.

As to “HMLPANGEAIYHYLASGAIKGVGPVTAQRIVDKFGEDTFDVLENNPLWLAEIKGITRKTAENIGAAFAAQF”, the “soluble fraction (log2)” value was no less than 0.62.

For “HMVFSKEELLFNSDSLLSLYPNDNKLLETILSEKIDHAVKNNDMSMYKEILVIDPKNPLANYHLLM”, the “soluble fraction (log2)” value came to 0.0579.

Take “HMINFKVKNVQDVGSRLDKFLVTNIPEFSRSKIQKHIKNGKVMVNGLLKKTGYKLEINDEINILNN”: the “soluble fraction (log2)” value is -0.276.

Turning to “HMSKNDLAGDEADVYKLLSVETGKPISDLVNRLPFGKSKTREILNTLAEKGFVYISGSGRGTKYHR”, the “soluble fraction (log2)” value worked out at 0.0557.

“HMTLVKRSAMVTAWSEFAGGRVNSKLIALQNGKAGDWIELENPQSGRKLRGRVQSDGSVRLGS”: the “soluble fraction (log2)” value came out at 0.169.

For “HMVAEPTYGRTTDVLNIRSGPSTDDERIGQLSRGAVVTILEEKDGWYRLQRGYISADYVTQISAEEASNS”, the “soluble fraction (log2)” value is -0.221.

Turning to “HMEYREFEAMTIRAIATLPPTQGHVIMLSRFEGLDNKEIALRLNLSLQTVKNTLTQGLKELKNKMRKLP”, the “soluble fraction (log2)” value is -1.8.

For the sequence “HMKEIIFRGIGEFILDYKSLVIEFLNKNNYANLSMDAPVDEVNKAVANNMLNEDFVTELLLFQRRVE”, the “soluble fraction (log2)” value is -1.2.

On to “HMRIETLESLANRLAYKAYRTGRKVELEPMNPFERRVIHTALQNSKYATTESEGEDMNRHIVIVPKEGG”, for which the “soluble fraction (log2)” value is -0.0606.

For the sequence “HMITIDNYFNKEKELDFSSFPEALRKGHGFVSKATAHGSSWVSYHSSDAIKKTIDIYLSKLNEYLSNNAKA”, the “soluble fraction (log2)” value is -0.494.

For the sequence “HMQQELEEMESGNLVRTAIDSLPINQRTAFILSAYEELPIKEIASIMNRSEGAVEQLLQRAKMNLKKKIK”, the “soluble fraction (log2)” value was determined as 0.347.

Consider “HMNNYNDSVQKIINYIADNLNENLSVRKLADKMPMSVSHFNRVFQKYTGDSPYAYVMAMRIKKAKYL”, for which the “soluble fraction (log2)” value turned out to be 0.0162.

In the case of “HMLPADETEARVLNVLGSEPLHVDEIRNQADLPIEKISATLAMMELKGMVRQVGGMNYVAMR”, the “soluble fraction (log2)” value turned out to be 0.0898.

Regarding “HMLSYNINEESKSSIMNVNVLKNNFASIDVEKLQNIIFTTFKKYNYYLNDFSSMNLLLHLLIIVDREL”, the “soluble fraction (log2)” value turned out to be 0.337.

Take “HMAVEQLKSQIGGFLKANREQSFSAQNMADGLRMNSAAGYQDVVNAMNALVRDGEAVEKDGQFSYNVN”: the “soluble fraction (log2)” value came out at 0.15.

As for “HMTDAYEVLDLNREASDEEIKKRYRELIREHHPDTLIAKGVPQEFVDLANDKMAAINAAYDRIEKDRGL”, the “soluble fraction (log2)” value amounted to 0.279.

In the case of “HMSMEQAKAEEIEKLGDNAPERLQAAALFAEKFFPQDVMDAVYKITETADGVRAIEHIMQTVK”, the “soluble fraction (log2)” value was -1.28.

As to “HMTASTLSYSKFNEQVVQNQVRKVTFQGEQVKGELISGQTFTTTVPANDTTLWPMLKAHNVDTAVTAA”, the “soluble fraction (log2)” value is 0.229.

In the case of “HMQNGNYVVQRQDSLWSIAARISGQTHQPIGEVMNHIKALNEHAFVGGNVNRLRTGTNLNLG”, the “soluble fraction (log2)” value is -0.156.

For “HMKPDSEFTSQDLWQNDLAGTGSAAYRRDKMGALLGIGYGNAKRFLERLNSYGVTRSEFDEALAQLGE”, the “soluble fraction (log2)” value was -0.0612.

Regarding “HMNATLSSSYPTSVVTDGEIYKLTFGLNGKYNGQEQITVKPHGDSNIYDSGGLRAYQNTQSNNVVTLN”, the “soluble fraction (log2)” value amounted to 0.1.

Regarding “HMEVQVGKQVRAFRETLGMTVQQFAERTGFSAALLAQIENRMVSPSLGTLVKIANTFGTTVSSFIG”, the “soluble fraction (log2)” value came to 0.0076.

As to “HMRDTDAEVTYKLNEPFKTMGSVSVEGKVLEFAGSKWFARAAEFASNTEVYPLAKNRVRLTFTFHGLTAP”, the “soluble fraction (log2)” value amounted to 0.105.

With “HMGTTTGKVNATGVNFRTGPSTSYSSMGKLGIDTAVTILGKSGDWYQVKVNSTGKTGYVFAKYITITSVV”, the “soluble fraction (log2)” value was -0.0946.

As to “HMAGQWQQDQNGWKYKTDNGDHMKNTWYQDSDSRWYYFGPDGYMKSSTMTPDGYVVGSDGAWIE”, the “soluble fraction (log2)” value was -0.518.

As to “HMQIEQVDYGTFMTMIDDKKIDKVEIKDNQILFIGKDDNKKYKTGIVQDPQLAERLHASGAVFSQDI”, the “soluble fraction (log2)” value was -0.136.

For “HMQPKKLNMYYDYVRQLLESHPYLSAAQIEDRLKEEFTELPMVHSKTVFNFVENIRLQHGINKHA”, the “soluble fraction (log2)” value was -0.152.

On to “HMAMTITKIEKTSQQKIYYFTDSGRVFKKMSDRSATIAVDDRVELEGGVLGSKFFVTANGSRVKVKEV”, for which the “soluble fraction (log2)” value is -0.516.

On to “HMGKDTLKLKKNAIPYDENGKKLTNLGYSYIKKTTVLNYYGTKIINGSTYYFLGDGVYIKAANVGTTSH”, for which the “soluble fraction (log2)” value is -2.23.

For the sequence “HMKRDYELPAFIETYLKKNHVAIDTKSAAMIAEHIGADLSRLISELDKVMISLPDDDRRVTPDVVEREI”, the “soluble fraction (log2)” value is -0.00533.

“HMSQNISSTKLIPENIKIGMSVFVIPLQQKGIVQSLPNRSKEVLVQIGNAKINVKINNLKLIED”: the “soluble fraction (log2)” value was 0.295.

Take “HMSTDKIDIVSSAILSSLKDNDGFIGLTDKSPPPEIYTAFRVSKKVFKQAIGALYKQRRITLESSGIRLIS”: the “soluble fraction (log2)” value is -0.193.

Consider “HMKRELFVEPGMRLEHTPSKTSGPVVSFIEGVIVVIKDQLGSEHRFDPVPGFFRHEGDLVALRSPLL”, for which the “soluble fraction (log2)” value was -0.282.

For the sequence “HMNIGEKIKTLRENNNISIEELAEKINDSIENILKYENNELEPTLDKKLALSIALGVTLSDLS”, the “soluble fraction (log2)” value is -0.114.

“HMVPDVVGKDYALAQAELEGANLVVAKGSSRYDDTLPAGVVLATDPKVGTVVKPGAKVTVILSK”: the “soluble fraction (log2)” value amounted to 0.251.

Take “HMEVPTGNHIRRWRKSLDITQVKLSSLSGVAQSIIAKIENETVDPRVSTLRKLVEALSRFENP”: the “soluble fraction (log2)” value is -1.89.

As to “HMGLLGTDISAETMIGYFKKIDLGFDEETQEVIVPSWRQDLLRDADIAEEVARFYGYDNIPTTLPSGEST”, the “soluble fraction (log2)” value was -0.122.

As to “HMGEVPVETKDGIKVHVHTVDKSQTAYGISRLYNITLNELYESNPEAKLELSIGQKLYFPVK”, the “soluble fraction (log2)” value was -0.154.

As for “HMLERKFGTSLEIKSLSKFLIENNYKKNAKYLNKLIQVLGTRSENRIIKTFFKQFPEIENIFRNQL”, the “soluble fraction (log2)” value was -0.846.

As for “HMISIKEAVFPFSRFPGVDTLLGPEMKSTGEVMGLADNFGHAYAKSQIASGSKLPESGTLFVSVKNSD”, the “soluble fraction (log2)” value was -0.309.
